From patent EP0662514A1
pKi: −log10 of the molar value.

Key:
[1] = molecular target: Chymotrypsin (bovine) (Bovine) (UniProt P00766); experiment: enzyme inhibition at equilibrium, apparent Ki from fit to the tight binding inhibitor equation
[2] = molecular target: Trypsin (bovine) (Bovine) (UniProt P00760); experiment: as above
[3] = molecular target: Tissue kallikrein (porcine) (Porcine) (UniProt P00752); experiment: as above
[4] = molecular target: Cathepsin G (human) (Human) (UniProt P08311); experiment: as above
Sequence of UniProt P08311 (P08311 21-244 limits assumed): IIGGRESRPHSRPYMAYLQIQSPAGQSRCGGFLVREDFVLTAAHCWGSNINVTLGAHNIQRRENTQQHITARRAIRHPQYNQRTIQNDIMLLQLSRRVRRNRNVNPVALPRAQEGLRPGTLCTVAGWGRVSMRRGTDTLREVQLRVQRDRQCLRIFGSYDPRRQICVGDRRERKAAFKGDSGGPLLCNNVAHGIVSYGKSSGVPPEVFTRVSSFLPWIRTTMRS

Plasmin (human) (Human) = Plasmin (human) (Human) (UniProt P00747); experiment: as above
Sequence of UniProt P00747 (P00747 97-810 limits assumed): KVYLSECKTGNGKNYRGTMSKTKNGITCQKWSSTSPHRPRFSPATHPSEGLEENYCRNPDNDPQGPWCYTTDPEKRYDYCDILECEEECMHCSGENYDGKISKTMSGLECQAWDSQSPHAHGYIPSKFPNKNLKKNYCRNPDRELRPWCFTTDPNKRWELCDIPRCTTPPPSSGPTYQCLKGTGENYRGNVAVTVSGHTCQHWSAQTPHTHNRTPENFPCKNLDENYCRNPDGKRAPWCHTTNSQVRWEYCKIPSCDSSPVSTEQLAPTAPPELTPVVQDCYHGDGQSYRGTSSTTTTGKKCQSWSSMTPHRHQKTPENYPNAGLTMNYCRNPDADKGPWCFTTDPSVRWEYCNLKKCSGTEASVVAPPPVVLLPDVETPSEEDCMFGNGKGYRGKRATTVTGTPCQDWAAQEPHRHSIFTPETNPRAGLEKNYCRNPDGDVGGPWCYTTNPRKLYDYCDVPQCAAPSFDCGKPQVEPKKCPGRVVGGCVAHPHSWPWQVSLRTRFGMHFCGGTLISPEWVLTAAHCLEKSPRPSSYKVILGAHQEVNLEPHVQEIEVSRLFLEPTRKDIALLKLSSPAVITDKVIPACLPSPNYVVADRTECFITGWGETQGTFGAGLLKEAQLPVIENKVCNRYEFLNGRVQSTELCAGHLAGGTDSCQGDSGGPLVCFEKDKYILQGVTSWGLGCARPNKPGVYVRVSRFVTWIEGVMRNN

[5] = molecular target: Chymotrypsin (bovine) (Bovine) (UniProt P00766); experiment: cell-based or functional assay
[6] = molecular target: Trypsin (bovine) (Bovine) (UniProt P00760); experiment: cell-based or functional assay
[7] = molecular target: Factor Xa (human) (Human) (UniProt P00742); experiment: cell-based or functional assay
Sequence of UniProt P00742 (P00742 41-488 limits assumed): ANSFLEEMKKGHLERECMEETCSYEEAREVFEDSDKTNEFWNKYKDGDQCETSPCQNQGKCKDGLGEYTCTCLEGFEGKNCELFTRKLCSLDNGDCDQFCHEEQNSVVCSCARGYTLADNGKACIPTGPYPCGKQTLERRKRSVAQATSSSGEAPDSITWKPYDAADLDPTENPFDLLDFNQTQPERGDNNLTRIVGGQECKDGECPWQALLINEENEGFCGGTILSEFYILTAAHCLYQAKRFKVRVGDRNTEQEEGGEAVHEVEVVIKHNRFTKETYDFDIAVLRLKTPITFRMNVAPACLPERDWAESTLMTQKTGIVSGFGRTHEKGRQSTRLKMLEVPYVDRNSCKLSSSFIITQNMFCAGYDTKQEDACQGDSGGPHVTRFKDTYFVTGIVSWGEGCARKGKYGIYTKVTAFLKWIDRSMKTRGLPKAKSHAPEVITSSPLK

Sequence of UniProt P00760 (P00760 24-246): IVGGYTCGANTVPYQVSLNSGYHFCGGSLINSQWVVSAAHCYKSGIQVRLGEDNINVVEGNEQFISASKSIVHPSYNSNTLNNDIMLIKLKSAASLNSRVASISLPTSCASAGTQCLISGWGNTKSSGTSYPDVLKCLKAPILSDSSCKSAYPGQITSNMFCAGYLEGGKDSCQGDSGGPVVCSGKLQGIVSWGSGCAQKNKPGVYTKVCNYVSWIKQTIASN
Sequence of UniProt P00752 (P00752 8-246 limits assumed): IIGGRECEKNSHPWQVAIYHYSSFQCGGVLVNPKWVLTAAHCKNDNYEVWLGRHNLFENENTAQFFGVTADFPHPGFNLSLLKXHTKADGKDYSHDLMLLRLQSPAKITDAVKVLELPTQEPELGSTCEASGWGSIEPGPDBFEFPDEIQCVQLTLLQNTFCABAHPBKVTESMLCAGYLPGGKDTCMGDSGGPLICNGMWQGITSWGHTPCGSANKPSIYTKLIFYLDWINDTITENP

Q: What does the source list for hirustasin?
A: pKi [1]: 8.19; pKi [2]: 8.15; pKi [3]: 7.89; pKi [4]: 8.54; pKi (Plasmin (human) (Human)): 6.86; SA [IU/mg] (specific inhibitory activity against chymotrypsin, Mono S pool) [5]: 0.15 IU/mg; SA [IU/mg] (specific inhibitory activity against trypsin, Mono S pool) [6]: 2.7 IU/mg; Partial Thromboplastin Time, hirustasin at 1.3 mM; buffer 47.3 s [7]: 47.9 s; Quick (prothrombin time), hirustasin at 1.3 mM; buffer 79 % [7]: 80%
